From paper PMC12835398
Where no end group is shown, it is not given here.

What was measured:
[1] = target: coagulation factor II thrombin receptor/protease activated receptor 1 (F2R/PAR1) (human (endogenous in ES-2)) (UniProt P25116)
[2] = target: coagulation factor II thrombin receptor/protease activated receptor 1 (F2R/PAR1) (human (endogenous in ES-2)) (UniProt P25116); remark: listed apart in the source

UniProt P25116, sequence (P25116 42-425): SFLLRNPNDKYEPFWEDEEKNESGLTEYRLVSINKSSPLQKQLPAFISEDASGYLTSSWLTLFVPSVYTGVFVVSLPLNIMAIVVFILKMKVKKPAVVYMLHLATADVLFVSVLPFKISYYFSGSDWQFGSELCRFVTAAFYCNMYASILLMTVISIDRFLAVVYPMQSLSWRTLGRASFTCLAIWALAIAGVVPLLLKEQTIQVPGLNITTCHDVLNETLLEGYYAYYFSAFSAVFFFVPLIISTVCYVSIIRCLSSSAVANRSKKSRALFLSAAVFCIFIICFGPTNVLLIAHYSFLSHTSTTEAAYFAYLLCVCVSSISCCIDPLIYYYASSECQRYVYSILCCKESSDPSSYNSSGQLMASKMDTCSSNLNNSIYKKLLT

- cellular uptake: DOX fluorescence (MFI per cell) of ES-2 cells by flow cytometry after 1 h at 37 °C, about 86 µM drug; LNP-DOX without peptide approximately 2000 [1]: 6000 MFI
B1: … conjugated to DSPE-PEG-maleimide, on doxorubicin-loaded lipid nanoparticles (LNP-Peptide-DOX) (peptide)
peptide: TFLLRGSGSGSC(DSPE‑PEG2000‑maleimide)
modifications: also: on doxorubicin-loaded lipid nanoparticles
- cytotoxicity on ES-2 cells, MTT assay, 24 h; IC50 as DOX concentration; LNP-DOX without peptide 10.16 µM, free DOX 0.6 µM [2]: 1260 nM
